From US20140271457A1 (AbbVie / Abbott, published 2014)
Substitutions are numbered along the chain they refer to.

B1: DVD3114 (bispecific antibody, IgG1)
VH: EVQLVQSGAEVKKPGASVKVSCKASGYTFNNYGIIWVRQAPGQGLEWMGWINTYTGKPTYAQKFQGRVTMTTDTSTSTAYMELSSLRSEDTAVYYCARKLFNTVAVTDNAMDYWGQGTTVTVSSASTKGPEVQLVQSGAEVKKPGASVKVSCKASGYTFTTYGVSWVRQAPGQGLEWMGEIYPGNYNTYYNEKFRGRVTMTTDTSTSTAYMELRSLRSDDTAVYYCARWRTSYFSDYGYFDYWGQGTTVTVSS
VL: DIQMTQSPSSLSASVGDRVTITCRASQDIENYLNWYQQKPGKAPKLLIYYTSRLQSGVPSRFSGSGSGTDFTLTISSLQPEDFATYFCQQGNTQPPTFGQGTKLEIKRTVAAPDVVMTQSPLSLPVTLGQPASISCRSSQSLVHSHGNTYLHWYQQRPGQSPRLLIYTVSNRFSGVPDRFSGSGSGTDFTLKISRVEAEDVGVYYCSQSTHVPYTFGGGTKVEIKR
notes: DVD-Ig; wt hIgG1 + kappa constants
B2: DVD3143 (bispecific antibody, IgG1)
VH: EVQLVESGGGLVQPGGSLRLSCAASGFTFSNYGVTWVRQAPGKGLEWVSMIWADGSTHYASSVKGRFTISRDNSKNTLYLQMNSLRAEDTAVYYCAREWQHGPVAYWGQGTLVTVSSGGGGSGGGGSEVQLVQSGAEVKKPGASVKVSCKASGYTFTSYWMHWVRQAPGQGLEWIGNINPKGGSNIYNEKFQGRVTMTRDTSISTAYMELSRLRSDDTAVYYCARLDYFGDSFDLWGQGTTVTVSS
VL: DIQMTQSPSSLSASVGDRVTITCRASQLVSSAVAWYQQKPGKAPKLLIYWASARHTGVPSRFSGSGSGTDFTLTISSLQPEDFATYYCQQHYKTPFTFGQGTKLEIKRGGSGGGGSGDIQMTQSPSSLSASVGDRVTITCRASQGIRNYLNWYQQKPGKAPKLLIYYASNLEVGVPSRFSGSGSGTDYTLTISSLQPEDFATYYCQQDNRFPYTFGGGTKVEIKR
notes: as for B1
B3: DVD3153 (bispecific antibody, IgG1)
VH: B2 VH with T35E, M50G, S61D, S62T, G65S
VL: B2 VL with R24K, A53T, R54L, K93R
notes: as for B1
B4: DVD3094 (bispecific antibody, IgG1)
VH: EVQLVESGGGLVQPGGSLRLSCAASGFTFSNYGVEWVRQAPGKGLEWVSGIWADGSTHYADTVKSRFTISRDNSKNTLYLQMNSLRAEDTAVYYCAREWQHGPVAYWGQGTLVTVSSASTKGPEVQLVQSGAEVKKPGASVKVSCKASGYTFTTYGVSWVRQAPGQGLEWMGEIYPGNYNTYYNEKFRGRVTMTTDTSTSTAYMELRSLRSDDTAVYYCARWRTSYFSDYGYFDYWGQGTTVTVSS
VL: DIQMTQSPSSLSASVGDRVTITCKASQLVSSAVAWYQQKPGKAPKLLIYWASTLHTGVPSRFSGSGSGTDFTLTISSLQPEDFATYYCQQHYRTPFTFGQGTKLEIKRTVAAPDVVMTQSPLSLPVTLGQPASISCRSSQSLVHSHGNTYLHWYQQRPGQSPRLLIYTVSNRFSGVPDRFSGSGSGTDFTLKISRVEAEDVGVYYCSQSTHVPYTFGGGTKVEIKR
notes: as for B1
B5: DVD3086 (bispecific antibody, IgG1)
VH: B4 VH with E35T, G50M, D61S, T62S, S65G
VL: DIQMTQSPSSLSASVGDRVTITCRASQLVSSAVAWYQQKPGKAPKLLIYWASARHTGVPSRFSGSGSGTDFTLTISSLQPEDFATYYCQQHYKTPFTFGQGTKLEIKRTVAAPSVFIFPPDVVMTQSPLSLPVTLGQPASISCRSSQSLVHSHGNTYLHWYQQRPGQSPRLLIYTVSNRFSGVPDRFSGSGSGTDFTLKISRVEAEDVGVYYCSQSTHVPYTFGGGTKVEIKR
notes: as for B1
B6: DVD3087 (bispecific antibody, IgG1)
VH: EVQLVESGGGLVQPGGSLRLSCAASGFTFSNYGVTWVRQAPGKGLEWVSMIWADGSTHYASSVKGRFTISRDNSKNTLYLQMNSLRAEDTAVYYCAREWQHGPVAYWGQGTLVTVSSASTKGPSVFPLAPEVQLVQSGAEVKKPGASVKVSCKASGYTFTTYGVSWVRQAPGQGLEWMGEIYPGNYNTYYNEKFRGRVTMTTDTSTSTAYMELRSLRSDDTAVYYCARWRTSYFSDYGYFDYWGQGTTVTVSS
VL: B4 VL with K24R, T53A, L54R, R93K
notes: as for B1
B7: DVD3097 (bispecific antibody, IgG1)
VH: B6 VH with T35E, M50G, S61D, S62T, G65S
VL: B4 VL
notes: as for B1
B8: DVD3096 (bispecific antibody, IgG1)
VH: B4 VH
VL: B5 VL with R24K, A53T, R54L, K93R
notes: as for B1
B9: DVD3113 (bispecific antibody, IgG1)
VH: EVQLVQSGAEVKKPGASVKVSCKASGYTFNNYGIIWVRQAPGQGLEWMGWINTYTGKPTYAQKFQGRVTMTTDTSTSTAYMELSSLRSEDTAVYYCARKLFNTVAVTDNAMDYWGQGTTVTVSSGGGGSGGGGSEVQLVQSGAEVKKPGASVKVSCKASGYTFTTYGVSWVRQAPGQGLEWMGEIYPGNYNTYYNEKFRGRVTMTTDTSTSTAYMELRSLRSDDTAVYYCARWRTSYFSDYGYFDYWGQGTTVTVSS
VL: DIQMTQSPSSLSASVGDRVTITCRASQDIENYLNWYQQKPGKAPKLLIYYTSRLQSGVPSRFSGSGSGTDFTLTISSLQPEDFATYFCQQGNTQPPTFGQGTKLEIKRGGSGGGGSGDVVMTQSPLSLPVTLGQPASISCRSSQSLVHSHGNTYLHWYQQRPGQSPRLLIYTVSNRFSGVPDRFSGSGSGTDFTLKISRVEAEDVGVYYCSQSTHVPYTFGGGTKVEIKR
notes: as for B1
B10: DVD3092 (bispecific antibody, IgG1)
VH: EVQLVQSGAEVKKPGASVKVSCKASGYTFTTYGVSWVRQAPGQGLEWMGEIYPGNYNTYYNEKFRGRVTMTTDTSTSTAYMELRSLRSDDTAVYYCARWRTSYFSDYGYFDYWGQGTTVTVSSASTKGPSVFPLAPEVQLVESGGGLVQPGGSLRLSCAASGFTFSNYGVTWVRQAPGKGLEWVSMIWADGSTHYASSVKGRFTISRDNSKNTLYLQMNSLRAEDTAVYYCAREWQHGPVAYWGQGTLVTVSS
VL: DVVMTQSPLSLPVTLGQPASISCRSSQSLVHSHGNTYLHWYQQRPGQSPRLLIYTVSNRFSGVPDRFSGSGSGTDFTLKISRVEAEDVGVYYCSQSTHVPYTFGGGTKVEIKRTVAAPDIQMTQSPSSLSASVGDRVTITCRASQLVSSAVAWYQQKPGKAPKLLIYWASARHTGVPSRFSGSGSGTDFTLTISSLQPEDFATYYCQQHYKTPFTFGQGTKLEIKR
notes: as for B1

What follows are binders tested against Recombinant Human IL-13 (human, UniProt P35225 35-146, limits assumed) (assay: Biacore SPR).
Protocol: The BIACORE assay (GE, Healthcare Piscataway, N.J.) determined the affinity of antibodies or DVD-Ig with kinetic measurements of on-rate and off-rate constants. Binding of antibodies or DVD-Ig proteins to a target antigen (for example, a purified recombinant target antigen) was determined by surface plasmon resonance-based measurements with a Biacore T200 using running HBS-EP+buffer from GE Healthcare at 25° C. All chemicals were obtained from GE Healthcare or otherwise from a different source as described in the text. For example, approximately 5000 RU of goat anti-mouse IgG, (Fcγ), fragment specific polyclonal antibody (Pierce Biotechnology Inc, Rockford, Ill.) diluted in 10 mM sodium acetate (pH 4.5) was directly immobilized across a CM5 research grade biosensor chip using a standard amine coupling kit according to manufacturer's instructions. Unreacted moieties on the biosensor surface were blocked with ethanolamine. Modified carboxymethyl dextran surface in flowcell 1 was used as a reference surface. Rate constants were derived by making kinetic binding measurements at different antigen concentrations ranging from 0.8-100 nM. Binding was recorded as a function of time and kinetic rate constants were calculated. In this assay, association rate was evaluated for 5 min and dissociation was monitored for 10 min. For kinetic screening analysis, rate equations derived from the 1:1 binding model were fitted simultaneously to association and dissociation phases of all injections (using global fit analysis with Rmax fit locally to account for capture variations) with the use of Biaevaluation software. Purified antibodies or DVD-Ig proteins were diluted in HEPES-buffered saline for capture across goat anti-mouse IgG specific reaction surfaces. Antibodies or DVD-Ig proteins to be captured as a ligand were injected over reaction matrices at a flow rate of 5 μl/minute. The association and dissociation rate constants, kₒₙ (M⁻¹ s⁻¹) and koff (s⁻¹) were determined under a continuous flow rate of 50 μl/minute. Rate constants were derived by making kinetic binding measurements at different antigen concentrations ranging from 0.8-100 nM. Binding was recorded as a function of time and kinetic rate constants were calculated. In this assay, association rate was evaluated for 5 min and dissociation was monitored for 10 min.

Sequence of Recombinant Human IL-13 (P35225 35-146 limits assumed): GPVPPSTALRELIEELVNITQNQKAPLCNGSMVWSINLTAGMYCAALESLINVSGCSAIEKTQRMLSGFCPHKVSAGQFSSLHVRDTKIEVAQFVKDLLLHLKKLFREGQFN

Row | Kd [nM] | koff [s⁻¹] | kon [M⁻¹ s⁻¹] | Binder
1 | 0.0069 | 1.2e-06 | 170000 | B1
2 | 0.37 | 6.2e-05 | 170000 | B2
3 | 0.45 | 8.2e-05 | 180000 | B3
4 | 0.067 | 5.9e-06 | 89000 | B4
5 | < 0.015 | < 1e-06 | 65000 | B5
6 | < 0.02 | < 1e-06 | 51000 | B6
7 | < 0.021 | < 1e-06 | 48000 | B7
8 | 0.00076 | 5.3e-08 | 70000 | B8
9 | 0.015 | 1.2e-06 | 75000 | B9
10 | 0.044 | 2.5e-05 | 580000 | B10
